In assay [1] the target is T1, recombinant ECTV CrmD (cytokine response modifier D), C-terminally tagged with V5 and 6xHis (ectromelia virus (ECTV)). The assay is described as follows: SPR.
The target in assay [2] is T1, recombinant ECTV CrmD (cytokine …). The assay is described as follows: SPR. The source holds these as a separate data set. In general terms: In SPR one partner is held on a chip, and binding of the other changes the refractive index at the surface.

B1: mouse Ccl27 (ligand)
chain: LPLPSSTSCCTQLYRQPLPSRLLRRIVHMELQEADGDCHLQAVVLHLARRSVCVHPQNRSLARWLERQGKRLQGTVPSLNLVLQKKMYSHPQQQN
The term Kd denotes the constant that tells how readily two partners part at equilibrium. By koff is commonly meant a measure of how fast the partners let go of each other. Regarding B1, the Kd in assay [1] worked out at 5.41 nM. Moreover, the koff in assay [2] was 0.00372 s⁻¹.

These data come from paper PMC5934441 (2018).
